Target: T1, FPht, monomeric FP head-tail protein from co-expression of FPh and FPt (human)
T1 construct: properdin (FP), human, TB-TSR3 head fragment (FPh), expressed with the endogenous FP signal peptide; the head fragment of FPc is residues 28-255; properdin (FP), human, TSR4-6 tail fragment (FPt); the tail fragment of FPc is residues 256-469; also called FPht WT; WT FPht
T1 chain 1: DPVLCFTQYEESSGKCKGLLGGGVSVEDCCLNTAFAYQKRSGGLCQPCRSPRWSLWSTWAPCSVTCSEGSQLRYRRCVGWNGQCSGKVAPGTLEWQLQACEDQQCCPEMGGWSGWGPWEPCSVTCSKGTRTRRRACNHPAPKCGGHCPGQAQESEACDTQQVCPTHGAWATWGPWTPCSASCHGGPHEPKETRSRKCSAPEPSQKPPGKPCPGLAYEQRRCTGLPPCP
T1 chain 2: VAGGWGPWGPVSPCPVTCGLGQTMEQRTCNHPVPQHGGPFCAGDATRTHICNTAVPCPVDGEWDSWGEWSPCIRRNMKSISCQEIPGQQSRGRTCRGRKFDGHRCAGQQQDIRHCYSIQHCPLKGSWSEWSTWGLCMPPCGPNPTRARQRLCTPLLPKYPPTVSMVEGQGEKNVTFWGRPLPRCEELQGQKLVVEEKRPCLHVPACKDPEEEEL
Experiment: BLI; hFPNb1 amine-coupled on AR2G sensors, FPht (20 μg/mL) loaded on it; C3b, FB variants or C3b + FB at 50 μg/mL each; 30°C; 20 mM MES pH 6.0, 100 mM NaCl, 0.05% Tween, 1 mg/mL BSA, 5 mM MgCl2; FB signal subtracted
Conditions: both partners purified

B1: hFPNb1, FP specific non-inhibitory nanobody (VHH)
VHH: QVQLVESGGGLVQAGGSLRLSCAASERTFTIYAMGWFRQAPGKEREFVAAISRSGENTDYADSVKGRFTISRDNNKNTISLQMNSLKPEDTAVYYCAAGRAILVHTTKKEYDHWGQGTQVTVSS
notes: llama nanobody selected by phage display against FPc
Does B1 bind?
Result: binds

— publication PMC6713926, “Structural Basis for Properdin Oligomerization and Convertase Stimulation in the Human Complement System” (Frontiers in Immunology, 2019)
